{"source": "paper PMC7821625", "origin": "cited, not measured here", "key": {"[1]": {"biological_target": "fibronectin (Homo sapiens) (UniProt P02751)", "sequence (P02751 32-2477)": "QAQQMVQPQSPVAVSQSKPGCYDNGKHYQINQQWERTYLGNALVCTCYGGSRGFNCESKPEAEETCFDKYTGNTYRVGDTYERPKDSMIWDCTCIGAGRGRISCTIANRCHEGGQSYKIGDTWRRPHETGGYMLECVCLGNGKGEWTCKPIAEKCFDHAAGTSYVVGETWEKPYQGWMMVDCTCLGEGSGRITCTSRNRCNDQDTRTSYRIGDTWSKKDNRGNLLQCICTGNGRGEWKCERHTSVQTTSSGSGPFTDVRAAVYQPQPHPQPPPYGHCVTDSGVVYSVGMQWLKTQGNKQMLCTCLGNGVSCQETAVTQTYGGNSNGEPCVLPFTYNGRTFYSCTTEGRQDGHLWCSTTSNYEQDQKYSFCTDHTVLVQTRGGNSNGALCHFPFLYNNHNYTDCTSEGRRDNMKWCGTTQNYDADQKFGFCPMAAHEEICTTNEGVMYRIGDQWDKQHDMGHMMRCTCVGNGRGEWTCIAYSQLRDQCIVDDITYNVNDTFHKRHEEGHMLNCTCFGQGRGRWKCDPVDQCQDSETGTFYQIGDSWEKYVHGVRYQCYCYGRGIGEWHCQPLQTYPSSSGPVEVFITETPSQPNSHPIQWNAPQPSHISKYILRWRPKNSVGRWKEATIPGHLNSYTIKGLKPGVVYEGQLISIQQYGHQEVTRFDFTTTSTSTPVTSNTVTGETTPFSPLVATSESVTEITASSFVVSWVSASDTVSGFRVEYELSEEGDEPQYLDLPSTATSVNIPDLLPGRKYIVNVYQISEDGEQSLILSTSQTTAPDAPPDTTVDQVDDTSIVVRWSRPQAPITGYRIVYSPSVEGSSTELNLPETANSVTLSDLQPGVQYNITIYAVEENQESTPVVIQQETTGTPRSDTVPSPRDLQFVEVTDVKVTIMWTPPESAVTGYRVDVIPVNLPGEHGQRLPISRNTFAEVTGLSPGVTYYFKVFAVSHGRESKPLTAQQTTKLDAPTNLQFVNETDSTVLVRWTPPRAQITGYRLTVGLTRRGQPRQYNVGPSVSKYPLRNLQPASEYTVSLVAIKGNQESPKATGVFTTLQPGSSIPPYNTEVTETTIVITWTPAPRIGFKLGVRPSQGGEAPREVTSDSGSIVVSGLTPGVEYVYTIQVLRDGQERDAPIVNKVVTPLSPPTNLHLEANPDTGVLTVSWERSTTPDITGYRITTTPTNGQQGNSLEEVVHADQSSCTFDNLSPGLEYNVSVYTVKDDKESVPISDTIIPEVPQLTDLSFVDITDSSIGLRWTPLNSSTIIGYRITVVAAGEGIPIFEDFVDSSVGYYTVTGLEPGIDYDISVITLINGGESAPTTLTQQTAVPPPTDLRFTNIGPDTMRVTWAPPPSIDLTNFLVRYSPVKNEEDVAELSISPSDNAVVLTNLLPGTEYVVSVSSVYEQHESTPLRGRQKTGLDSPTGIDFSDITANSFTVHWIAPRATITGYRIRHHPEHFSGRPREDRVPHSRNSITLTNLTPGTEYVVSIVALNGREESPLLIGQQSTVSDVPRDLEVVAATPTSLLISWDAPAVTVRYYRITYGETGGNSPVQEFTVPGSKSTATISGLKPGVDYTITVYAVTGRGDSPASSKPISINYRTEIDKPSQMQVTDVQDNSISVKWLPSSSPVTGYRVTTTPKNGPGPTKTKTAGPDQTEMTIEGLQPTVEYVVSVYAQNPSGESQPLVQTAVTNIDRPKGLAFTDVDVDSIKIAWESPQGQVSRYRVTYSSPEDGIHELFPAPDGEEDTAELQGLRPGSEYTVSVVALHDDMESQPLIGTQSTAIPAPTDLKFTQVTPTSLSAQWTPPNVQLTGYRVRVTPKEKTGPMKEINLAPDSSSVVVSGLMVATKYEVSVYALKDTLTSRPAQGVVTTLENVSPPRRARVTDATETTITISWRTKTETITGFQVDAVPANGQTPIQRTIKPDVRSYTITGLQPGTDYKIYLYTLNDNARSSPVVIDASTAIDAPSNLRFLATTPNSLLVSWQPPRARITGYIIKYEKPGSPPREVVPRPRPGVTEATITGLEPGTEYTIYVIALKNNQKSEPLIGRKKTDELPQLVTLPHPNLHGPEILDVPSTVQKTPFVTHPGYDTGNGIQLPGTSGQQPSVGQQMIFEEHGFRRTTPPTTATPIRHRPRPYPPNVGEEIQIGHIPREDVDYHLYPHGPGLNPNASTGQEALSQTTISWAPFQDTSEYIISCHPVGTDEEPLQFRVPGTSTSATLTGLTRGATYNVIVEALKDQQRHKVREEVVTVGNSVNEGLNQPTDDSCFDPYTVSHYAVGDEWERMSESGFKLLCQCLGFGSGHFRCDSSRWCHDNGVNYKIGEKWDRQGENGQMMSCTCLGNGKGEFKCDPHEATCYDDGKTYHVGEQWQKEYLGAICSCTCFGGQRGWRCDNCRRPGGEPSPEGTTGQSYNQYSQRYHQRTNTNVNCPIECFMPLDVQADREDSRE"}, "[2]": {"biological_target": "plasminogen (Homo sapiens) (UniProt P00747)", "sequence (P00747 20-810)": "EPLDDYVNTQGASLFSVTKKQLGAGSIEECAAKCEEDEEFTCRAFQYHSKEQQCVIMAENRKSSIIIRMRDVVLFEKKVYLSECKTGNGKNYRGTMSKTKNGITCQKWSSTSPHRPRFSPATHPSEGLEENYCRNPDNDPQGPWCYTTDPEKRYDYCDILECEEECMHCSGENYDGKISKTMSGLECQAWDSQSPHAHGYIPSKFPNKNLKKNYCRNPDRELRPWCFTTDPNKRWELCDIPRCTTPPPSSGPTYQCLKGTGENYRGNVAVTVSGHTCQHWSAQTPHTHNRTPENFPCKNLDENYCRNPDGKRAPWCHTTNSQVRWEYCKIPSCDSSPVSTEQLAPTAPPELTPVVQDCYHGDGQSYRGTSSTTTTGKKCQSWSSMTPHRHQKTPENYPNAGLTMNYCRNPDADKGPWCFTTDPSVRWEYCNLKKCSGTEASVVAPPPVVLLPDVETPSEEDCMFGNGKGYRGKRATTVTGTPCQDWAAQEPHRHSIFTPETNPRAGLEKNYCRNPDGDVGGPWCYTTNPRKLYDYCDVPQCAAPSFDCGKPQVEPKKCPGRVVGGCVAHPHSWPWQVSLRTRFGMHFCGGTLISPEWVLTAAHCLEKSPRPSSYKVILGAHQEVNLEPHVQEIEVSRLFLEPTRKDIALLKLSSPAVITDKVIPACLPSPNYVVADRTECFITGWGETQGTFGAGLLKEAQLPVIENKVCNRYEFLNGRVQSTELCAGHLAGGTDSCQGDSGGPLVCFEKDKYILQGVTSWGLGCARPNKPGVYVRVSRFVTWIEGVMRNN"}}, "data": [{"substance": "LigA LigA7'-13 (from UniProt Q72MA6)", "values": [{"measurement": "Kd", "setting": "[1]", "result": 0.126, "unit": "µM"}, {"measurement": "Kd", "setting": "[2]", "result": 1.2, "unit": "µM"}]}]}
